The source of these data is patent US11857565B2, “Hydrophobic Auristatin F compounds and conjugates thereof” (priority 2018, dated 2024).

What all share (type): cell-based
Settings in all cases: 4-load ADC

In assay [1] the test system is L428 Hodgkin Lymphoma. Put plainly: In vitro cytotoxicity, 4-load auristatin ADCs on L428. The procedure: (§1) The cytotoxicity of an auristatin Ligand Drug Conjugate or free auristatin drug was measured by a cell proliferation assay employing the protocol described in Promega Corp. Technical Bulletin TB288; Mendoza et al., 2002, Cancer Res. 62:5485-5488), the methods of which is specifically incorporated by reference herein. Briefly, an aliquot of 100 μl of cell culture containing about […] (e.g., HL-60, SK-MEL-5, etc.) in medium is deposited in each well of a 96-well, opaque-walled plate. Control wells were prepared containing medium and without cells. Free Drug or conjugate is added to the experimental wells and incubated for 96 h and are then equilibrated to room temperature for approximately 30 minutes whereupon a volume of CellTiter-Glo™ reagent equal to the volume of cell culture medium present in each well is added. The contents are mixed for 2 minutes on an orbital shaker to induce cell lysis and the plate is incubated at room temperature for 10 minutes to stabilize the luminescence signal for recordation.

For assay [2], the system named is 786-O Renal Cell Carcinoma. Put plainly: In vitro cytotoxicity, 4-load auristatin ADCs on 786-O. The procedure: as §1
Assay [3] deals with A498 Renal Cell Carcinoma. The assay is described as follows: In vitro cytotoxicity, 4-load auristatin ADCs on A498. The procedure: as §1

B1: h1F6-36(4): 4-load auristatin ADC targeting CD70: h1F6 antibody conjugated to drug linker compound 36 (conjugate, chains of the INN, looked up)
VH: QVQLVQSGAEVKKPGASVKVSCKASGYTFTNYGMNWVRQAPGQGLKWMGWINTYTGEPTYADAFKGRVTMTRDTSISTAYMELSRLRSDDTAVYYCARDYGDYGMDYWGQGTTVTVSS
VL: DIVMTQSPDSLAVSLGERATINCRASKSVSTSGYSFMHWYQQKPGQPPKLLIYLASNLESGVPDRFSGSGSGTDFTLTISSLQAEDVAVYYCQHSREVPWTFGQGTKVEIK
modifications: auristatin drug linker compound 36, 4-load
Consider B1, for which the “In vitro IC50 L428 Hodgkin Lymphoma” value in assay [1] amounted to 1 ng/mL. For the same molecule, the “In vitro IC50 786-O Renal Cell Carcinoma” value in assay [2] is 4 ng/mL. For the same molecule, the “In vitro IC50 A498 Renal Cell Carcinoma” value in assay [3] turned out to be 9 ng/mL.
